For series [1] the following is noted: cited from earlier work.
The nature of series [2]: time-resolved emission of free [Re]-peptides. It is filed as physicochemical. Conditions: free peptide.
For a further series, the target named is α2 (Escherichia coli, UniProt P00452). The series is described as follows: peptide binding to α2 by steady-state emission titration. More on the design: species or system E. coli. The settings on record: 5 μM peptide, α2 0→65 μM, pH 7.5.
For series [3] the following is noted: MP-FRaP.
For series [4] the following is noted: [Re^II(bpy•−)]* couple; cited from earlier work.
For series [5], the target named is Ac-Y-βC19 peptide C-terminal 19-residue peptide (Escherichia coli) (UniProt P69924). The settings on record: cited from earlier work.
Series [6] addresses [Re]-Y-βC19 peptide (C-terminal tail of beta2) 356-375 (Escherichia coli, UniProt P69924, Re(bpy)(CO)3CN appended at N-terminus of peptide). The experiment in a line: steady-state emission titration.
The nature of series [7]: α2 radius by DLS or crystal structure and Einstein-Stokes diffusion coefficient. Conditions: for diffusion coefficient kd2: Einstein-Stokes, 25 °C, η ∼1 cP.

Chain of [Re]-Y-βC19 peptide (C-terminal tail of beta2) 356-375 (P69924 356-375): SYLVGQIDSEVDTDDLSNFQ

Consider `CC(=O)N[C@@H](Cc1cc(F)c(O)c(F)c1)C(N)=O` [Ac-3,5-F2Y-NH2], for which the “pKa of 3,5-F2Y amino acid in solution” value in series [1] is 7.2.

With `CC[C@H](C)[C@H](NC(=O)[C@H](CCC(N)=O)NC(=O)CNC(=O)[C@@H](NC(=O)[C@H](CC(C)C)NC(=O)[C@H](Cc1ccc(O)cc1)NC(=O)c1ccnc(-c2cc(C)ccn2)c1)C(C)C)C(=O)N[C@@H](CC(=O)O)C(=O)N[C@@H](CO)C(=O)N[C@@H](CCC(=O)O)C(=O)N[C@H](C(=O)N[C@@H](CC(=O)O)C(=O)N[C@H](C(=O)N[C@@H](CC(=O)O)C(=O)N[C@@H](CC(=O)O)C(=O)N[C@@H](CC(C)C)C(=O)N[C@@H](CO)C(=O)N[C@@H](CC(N)=O)C(=O)N[C@@H](Cc1ccccc1)C(=O)N[C@@H](CCC(N)=O)C(=O)N[C@@H](CC(C)C)C(=O)O)[C@@H](C)O)C(C)C` [[Re]-Y-βC19], in series [2] (pH 12, bi-exponential fit), the “emission decay lifetime τ1” value is given as 0.5 ns, the “emission decay lifetime τ2” value is 3.0 ns, the “fraction of emission decay component τ1” value is recorded as 86% and the “fraction of emission decay component τ2” value worked out at 14%. Also, the “emission lifetime τ” value in series [2] (pH < 10) worked out at 62 ± 2 ns. The “change of emission band upon binding to α2” value on α2 is “the emission band blue shifts and increases in intensity”. Further, the “diffusion coefficient kd1” value in series [3] is reported as 6.1 × 10^−7 cm^−1 s^–1.

Re(bpy)(CO)3CN [[Re]]: the “excited state reduction potential E°” value in series [4] is listed as 1.59 V vs. NHE.

For orientation: Kd means the constant that tells how readily two partners part at equilibrium. As to “ribonucleotide reductase alpha2 (from UniProt P00452)”, the Kd in series [5] is 20 µM.

B1: Ribonucleotide reductase R1 subunit alpha2 (protein)
chain: MNQNLLVTKRDGSTERINLDKIHRVLDWAAEGLHNVSISQVELRSHIQFYDGIKTSDIHETIIKAAADLISRDAPDYQYLAARLAIFHLRKKAYGQFEPPALYDHVVKMVEMGKYDNHLLEDYTEEEFKQMDTFIDHDRDMTFSYAAVKQLEGKYLVQNRVTGEIYESAQFLYILVAACLFSNYPRETRLQYVKRFYDAVSTFKISLPTPIMSGVRTPTRQFSSCVLIECGDSLDSINATSSAIVKYVSQRAGIGINAGRIRALGSPIRGGEAFHTGCIPFYKHFQTAVKSCSQGGVRGGAATLFYPMWHLEVESLLVLKNNRGVEGNRVRHMDYGVQINKLMYTRLLKGEDITLFSPSDVPGLYDAFFADQEEFERLYTKYEKDDSIRKQRVKAVELFSLMMQERASTGRIYIQNVDHCNTHSPFDPAIAPVRQSNLCLEIALPTKPLNDVNDENGEIALCTLSAFNLGAINNLDELEELAILAVRALDALLDYQDYPIPAAKRGAMGRRTLGIGVINFAYYLAKHGKRYSDGSANNLTHKTFEAIQYYLLKASNELAKEQGACPWFNETTYAKGILPIDTYKKDLDTIANEPLHYDWEALRESIKTHGLRNSTLSALMPSETSSQISNATNGIEPPRGYVSIKASKDGILRQVVPDYEHLHDAYELLWEMPGNDGYLQLVGIMQKFIDQSISANTNYDPSRFPSGKVPMQQLLKDLLTAYKFGVKTLYYQNTRDGAEDAQDDLVPSIQDDGCESGACKI
The molecule B1 yielded a Kd in series [6] of 9 µM.

B2: α2: active site-containing subunit of RNR, E. coli class I, homodimer (protein, UniProt P00452 1-761, looked up)
Ribonucleoside-diphosphate …: B1 chain
In the case of B2, the entries for the “diffusion coefficient kd2” value in series [7] (DLS radius 55.8 Å) and in series [7] (crystal structure radius 40.4 Å) were 3.9 × 10^−7 cm^2 s^−1 and 5.4 × 10^−7 cm^2 s^−1, respectively. Besides, in series [7] (eq 5 with d1, d2, d3 = 100.7, 71.4, 73.2 Å), the “radius estimated from crystal structure” value is 40.4 Å.

(Values after paper PMC3340421 (Biochemistry, 2009).)
